This is an account of results in patent publication US20220227832.

The data set addresses Muc16 CAR 53B6 with a V5 tag attached to its N-terminus via matriptase cleavable linker TPS6 45aa.

Muc16 CAR 53B6 with a V5 tag attached to its N-terminus via matriptase cleavable linker TPS6 45aa, sequence (chain, as listed by the source): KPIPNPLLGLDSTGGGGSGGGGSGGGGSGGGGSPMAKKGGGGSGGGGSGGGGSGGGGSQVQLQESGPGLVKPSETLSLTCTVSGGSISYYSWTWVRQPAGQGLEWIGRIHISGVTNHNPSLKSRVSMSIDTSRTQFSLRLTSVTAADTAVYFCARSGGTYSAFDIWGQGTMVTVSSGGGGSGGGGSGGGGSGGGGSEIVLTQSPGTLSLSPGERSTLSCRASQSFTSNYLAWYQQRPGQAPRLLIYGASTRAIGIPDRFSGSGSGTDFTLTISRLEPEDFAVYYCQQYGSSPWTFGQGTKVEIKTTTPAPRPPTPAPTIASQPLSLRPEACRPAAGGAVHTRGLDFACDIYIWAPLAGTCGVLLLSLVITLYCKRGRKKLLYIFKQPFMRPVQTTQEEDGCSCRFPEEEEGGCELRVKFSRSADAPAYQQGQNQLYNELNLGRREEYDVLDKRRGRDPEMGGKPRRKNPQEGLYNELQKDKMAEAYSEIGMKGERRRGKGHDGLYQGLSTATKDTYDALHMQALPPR

B1: endogenous matriptase on OVCAR3, MDA-MB-231 and NCI-H292 cells (protein)
chain: MGSDRARKGGGGPKDFGAGLKYNSRHEKVNGLEEGVEFLPVNNVKKVEKHGPGRWVVLAAVLIGLLLVLLGIGFLVWHLQYRDVRVQKVFNGYMRITNENFVDAYENSNSTEFVSLASKVKDALKLLYSGVPFLGPYHKESAVTAFSEGSVIAYYWSEFSIPQHLVEEAERVMAEERVVMLPPRARSLKSFVVTSVVAFPTDSKTVQRTQDNSCSFGLHARGVELMRFTTPGFPDSPYPAHARCQWALRGDADSVLSLTFRSFDLASCDERGSDLVTVYNTLSPMEPHALVQLCGTYPPSYNLTFHSSQNVLLITLITNTERRHPGFEATFFQLPRMSSCGGRLRKAQGTFNSPYYPGHYPPNIDCTWNIEVPNNQHVKVRFKFFYLLEPGVPAGTCPKDYVEINGEKYCGERSQFVVTSNSNKITVRFHSDQSYTDTGFLAEYLSYDSSDPCPGQFTCRTGRCIRKELRCDGWADCTDHSDELNCSCDAGHQFTCKNKFCKPLFWVCDSVNDCGDNSDEQGCSCPAQTFRCSNGKCLSKSQQCNGKDDCGDGSDEASCPKVNVVTCTKHTYRCLNGLCLSKGNPECDGKEDCSDGSDEKDCDCGLRSFTRQARVVGGTDADEGEWPWQVSLHALGQGHICGASLISPNWLVSAAHCYIDDRGFRYSDPTQWTAFLGLHDQSQRSAPGVQERRLKRIISHPFFNDFTFDYDIALLELEKPAEYSSMVRPICLPDASHVFPAGKAIWVTGWGHTQYGGTGALILQKGEIRVINQTTCENLLPQQITPRMMCVGFLSGGVDSCQGDSGGPLSSVEADGRIFQAGVVSWGDGCAQRNKPGVYTRLPLFRDWIKENTGV
Turning to B1, the “removal of V5 tag (linker cleavage, flow cytometry)” value is given as “the endogenous matriptase showed limited activity”.
